Article PMC9957770, “Mass spectrometry imaging–based assays for aminotransferase activity reveal a broad substrate spectrum for a previously uncharacterized enzyme” (The Journal of Biological Chemistry, 2023)

Columns and labels:
Test in all cases: purified protein
Format in all cases: biochemical, Arabidopsis thaliana
purified protein [1] = substrate: N[C@@H](Cc1ccccc1)C(=O)O; conditions: 0.2 mM PLP, 100 mM HEPES pH 8.0, 30 °C
purified protein [2] = substrate: N[C@@H](Cc1c[nH]cn1)C(=O)O; conditions: 20 mM alpha-ketoglutarate, 0.2 mM PLP, 100 mM HEPES pH 8.0, 30 °C
purified protein [3] = substrate: N[C@@H](Cc1c[nH]c2ccccc12)C(=O)O; conditions: 0.2 mM PLP, 100 mM HEPES pH 8.0, 30 °C
purified protein [4] = substrate: N[C@@H](Cc1ccc(O)cc1)C(=O)O; conditions: 0.2 mM PLP, 100 mM HEPES pH 8.0, 30 °C

B1: AtTAR1 (Arabidopsis thaliana) (protein)
chain: MMVGCENSKKSDSGSNEDKSLSDDIINLDQGDPTAFQEYWMKKKDRCTVVIPAWDLMSYFSDTKNVCWFLEPELEKAIKALHGAIGNAATEERYIVVGTGSSQLCQAALFALSSLSEVKPVSIVAAVPYYSTYVEEASYLQSTLYKWEGDARTFDKKGPYIELVTSPNNPDGIMREPVVNRREGGKVIHDLAYYWPHYTPITRRQDHDLMLFTFSKITGHAGSRIGWALVKDIEVAKKMVHYLTINSIGVSKESQTRATTILNELTKTCRTQSESFFEYGYEKMKSRWERLREVVESGDAFTLPNYPQDFCNFFGKTLSTSPAFAWLGYKEERDLGSLLKEKKVLTRGGDRCGCNKRYVRVSMLSRDDDFDVSLQRLATIKDLKCVEP
B1 gave a Km (purified protein [1]; 20 mM alpha-ketoglutarate) of 2.6 ± 0.3 mM, a kcat (purified protein [1]; 20 mM alpha-ketoglutarate) of 5.0 ± 0.2 s⁻¹ and a Km (purified protein [2]) of 30 ± 6 mM. It also gave a kcat (purified protein [2]) of 1.8 ± 0.1 s⁻¹, a Km (purified protein [3]; 20 mM alpha-ketoglutarate) of 0.07 ± 0.02 mM and a kcat (purified protein [3]; 20 mM alpha-ketoglutarate) of 4.5 ± 0.2 s⁻¹. For the same protein, the Km (purified protein [4]; 20 mM alpha-ketoglutarate) was 1 ± 3 mM and the kcat (purified protein [4]; 20 mM alpha-ketoglutarate) was 4.0 ± 0.3 s⁻¹.

B2: AtTAA1 (Arabidopsis thaliana) (protein)
chain: MVKLENSRKPEKISNKNIPMSDFVVNLDHGDPTAYEEYWRKMGDRCTVTIRGCDLMSYFSDMTNLCWFLEPELEDAIKDLHGVVGNAATEDRYIVVGTGSTQLCQAAVHALSSLARSQPVSVVAAAPFYSTYVEETTYVRSGMYKWEGDAWGFDKKGPYIELVTSPNNPDGTIRETVVNRPDDDEAKVIHDFAYYWPHYTPITRRQDHDIMLFTFSKITGHAGSRIGWALVKDKEVAKKMVEYIIVNSIGVSKESQVRTAKILNVLKETCKSESESENFFKYGREMMKNRWEKLREVVKESDAFTLPKYPEAFCNYFGKSLESYPAFAWLGTKEETDLVSELRRHKVMSRAGERCGSDKKHVRVSMLSREDVFNVFLERLANMKLIKSIDL
With B2 the Km (purified protein [1]; 20 mM pyruvate) was 13 ± 3 mM, the kcat (purified protein [1]; 20 mM pyruvate) was 2.0 ± 0.3 s⁻¹ and the Km (purified protein [2]) was 11 ± 2 mM. It also gave a kcat (purified protein [2]) of 0.6 ± 0.1 s⁻¹, a Km (purified protein [3]; 20 mM pyruvate) of 1.2 ± 0.2 mM and a kcat (purified protein [3]; 20 mM pyruvate) of 4.2 ± 0.2 s⁻¹. The Km (purified protein [4]; 20 mM pyruvate) was 8 ± 3 mM and the kcat (purified protein [4]; 20 mM pyruvate) was 13.2 ± 0.3 s⁻¹.
